{"source": "patent US12723255B2", "about": "“Herbicide tolerance genes and methods of use thereof” (priority 2014, dated 2026)", "molecules": {"B1": {"name": "MON-HT7: engineered oxygenase protein, amino acid sequence SEQ ID NO:34 (protein)", "chain": "MHAALTPLTNKYRFIDVQPLTGVLGAEITGVDLREPLDDSTWNEILDAFHTYQVIYFPGQAITNEQHIAFSRRFGPVDPVPLLKSIEGYPEVQMIRREANESGRVIGDDWHADSTFLDAPPAAVVMRAIEVPEYGGDTGFLSMYSAWETLSPTMQATIEGLNVVHSATKVFGSLYQATNWRFSNTSVKVMDVDAGDRETVHPLVVTHPVTGRRALYCNQVYCQKIQGMTDAESKSLLQFLYEHATKFDFTCRVRWKKDQVLVWDNLCTMHRSVPDYAGKFRYLTRTTVAGDKPSR"}, "B2": {"name": "MON-HT8: engineered oxygenase protein, amino acid sequence SEQ ID NO:37 (protein)", "chain": "B1 chain with L82I, A112T, A277G, G278N, K279A"}, "B3": {"name": "MON-HT55: engineered oxygenase protein, amino acid sequence SEQ ID NO:11 (protein)", "chain": "MHAALSPLSQRFERIAVQPLTGVLGAEITGVDLREPLDDSTWNEILDAFHTYQVIYFPGQAITNEQHIAFSRRFGPVDPVPLLKSIEGYPEVQMIRREANESGRVIGENWHTDSTFLDAPPAAVVMYAKEIPPYGGDTLFTSMYTAWETLSPTMQATIEGLNVVHSATRVFGSLYQAQNRRFSNTSVKVMDVDAGDRETVHPLVVTHPETGRKGLYVNQVYCQRIEGMSEKESEPLLSFLFAHATKPEFTCRVRWQEGDVLVWDNLCTQHYAVPDYAGKFRYLTRTTVGGVRPAR"}}, "key": {"[1]": {"type": "biochemical", "settings": "for temperature sensitivity compared with the wild-type enzyme: substrate 2,4-D, lower T1/2 than wild-type", "protocol": "To analyze these engineered proteins for activity in higher temperatures, the in vitro enzyme assay in Example 1 was modified to specify pre-heating all of the assay components to the desired temperature for 5 minutes before combining the components and then maintaining the reaction at the desired temperature for the duration of the reaction. To normalize the assay measurements, quizalofop-P was used as the substrate for the reaction and enzyme activity was normalized based on the 25° C. readings. Using these parameters, the temperature at which the enzyme activity was half of maximum (T1/2) was calculated. The T1/2 for MON-HT55 was calculated to be 29° C., and the T1/2 for wild-type RdpA was calculated to be 38° C. (FIG. 2A).\nEnzyme activity over a range of temperatures was analyzed in-depth for MON-HT1, MON-HT2, MON-HT7, and MON-HT8. These assays were conducted as described above. Quizalofop-P or 2,4-D was used as the substrate for these reactions and activity was normalized based on the activity of the wild-type enzyme at 25° C. The activity curves obtained are presented in FIG. 2B (with quizalofop-P as the substrate) and FIG. 2C (with 2,4-D as the substrate). Using quizalofop-P as the substrate, MON-HT55 was the most temperature sensitive, with a T1/2 of 29° C. […] MON-HTI was slightly less temperature sensitive, with a T1/2 about 1° C. higher than the wild-type enzyme."}, "F1 hybrid maize plants [2]": {"test_system": "F1 hybrid maize plants", "assay": "efficacy field trial for quizalofop-P tolerance and clethodim sensitivity", "type": "in vivo", "settings": "scale 0 to 100; for average injury rating, V8 Growth Stage, 1x Clethodim: clethodim 0.25 lb ai/acre at V8, volunteer control", "protocol": "Separate trait efficacy field trials for quizalofop-P and 2,4-D were conducted at two locations cach with F1 hybrid transgenic plants produced by crossing an inbred plant containing maize event MON89034 with an R1 plant containing MON-HT55 (with a CTP), MON-HTI (with or without a CTP), MON-HT2 (with or without a CTP), MON-HT3 (with a CTP), MON-HT4 (with a CTP), MON-HT5 (with a CTP), MON-HT6 (with a CTP), or MON-HT7 (with a CTP). Transgenic F1 hybrid plants containing maize events NK603×MON89034 were used for comparison as a control.\nIn the efficacy field trial for quizalofop-P tolerance and clethodim sensitivity, one of four herbicide treatments was used: (1) quizalofop-P (Assure II) at 0.32 lb ai/acre (4×) plus 0.25% v/v non-ionic surfactant (NIS) applied at VE-V2 growth stage followed by the same at V4 growth stage followed by the same at V8 growth stage; (2) quizalofop-P at 0.64 lb ai/acre (8×) plus 0.25% v/v NIS applied at VE to V2 growth stage followed by the same at V4 growth stage followed by the same at V8 growth stage; (3) quizalofop-P at 1.28 lb ai/acre (16×) plus 0.25% v/v NIS applied at VE to V2 growth stage followed by the same at V4 growth stage followed by the same at V8growth stage; or (4) clethodim at 0.25 lb ai/acre (1×) plus 0.25% v/v NIS applied at V8 growth stage. Plots were visually rated 10-14 days after application for crop injury on a scale of 0 to 100with “0” being none and “100” being complete crop destruction. Tables 14 and 15 show the average injury ratings after herbicide application at V4 or V8 growth stage, respectively."}, "F1 hybrid maize plants [3]": {"test_system": "F1 hybrid maize plants", "assay": "efficacy field trial with segregating F1 hybrid plants", "type": "in vivo", "settings": "for % Injury from V4 2,4-D / % Injury from V8 2,4-D: 2,4-D amine 2× at VE-V2 (plus quizalofop-P 0.5×), V4, V8; for % Injury from V4 Quizalofop / % Injury from V8 Quizalofop: quizalofop-P 2× at VE-V2, V4, V8", "protocol": "Ten unique engineered proteins optimized for activity at higher temperatures were selected for maize transformation and analysis in plants. DNA constructs were produced for expressing these engineered proteins with codon usage optimized for monocot expression using methods known to those skilled in the art. Enhancers, promoters, leaders, introns, CTPs, and 3′UTRs were tested in various combinations with the engineered proteins in these DNA constructs. The DNA constructs were used to transform immature maize (LH244) embryos with these vectors using Agrobacterium tumifaciens and standard methods known in the art. Regenerated R0 transgenic plantlets were grown in the green house.\nTransgenic R0 maize plants were screened by the application of quizalofop-P (2×) plus 2,4-D (2×) at 7 to 10 days following transplant into plugs (generally corresponding to V3-V4 growth stage). All constructs tested produced plants containing unique events that passed the RO screen. The R0 plants were selfed to generate R1 homozygous seed and the R0 was also used as the male to cross with inbred plants containing maize event MON89034 to generate segregating F1 hybrid seed for efficacy field trials.\nAn efficacy field trial was conducted with segregating F1 hybrid plants, with 50% hemizygous and 50% null for the transgene. Tolerance to quizalofop-P (2×) plus 2,4-D (2×) was assessed using two herbicide application regimens: (1) quizalofop-P (Assure II) at 0.16 lb ai/acre (2×) plus 0.25% v/v non-ionic surfactant (NIS) applied at VE-V2 growth stage followed by the same at V4 growth stage followed by the same at V8 growth stage and (2) 2,4-D amine at 2 lb ae/acre (2×) plus quizalofop-P at 0.04 lb ai/acre (0.5×) plus 0.25% v/v NIS applied at VE-V2 growth stage followed by 2,4-D amine at 2 lb ae/acre (2×) plus 0.25% v/v NIS applied at V4 growth stage followed by the same at V8 growth stage. The 50% of the plants that were null for transgene were removed by the first quizalofop-P application at VE-V2 growth stage. Plots were visually rated 10-14 days after application for crop injury on a scale of 0 to 100 with “0” being none and “100” being complete crop destruction. […] The percentage injury rating with 2× application of 2,4-D at V8 growth stage ranged from a high of 40% to a low of 0. Similarly, the percentage injury rating with 2× application of quizalofop-P at V8 growth stage ranged from a high of 90% to a low of 0. Variation in injury rating between plants expressing the same protein is likely due to variations in construct design or transgene insertion location."}, "[4]": {"settings": "0.32 lb ai/acre at VE-V2, V4, V8, with CTP unless label says no CTP"}, "[5]": {"settings": "0.64 lb ai/acre at VE-V2, V4, V8, with CTP unless label says no CTP"}, "[6]": {"settings": "1.28 lb ai/acre at VE-V2, V4, V8, with CTP unless label says no CTP"}}, "note": "Substitutions are numbered along the chain they refer to. Where “and” joins values, the source holds several entries; their conditions need not be identical. Equal values may be shown once."}
{"molecule": "B1", "values": [{"measurement": "T1/2, temperature at which the enzyme activity was half of maximum", "setting": "[1]", "value": 47, "unit": "°C"}, {"measurement": "temperature sensitivity compared with the wild-type enzyme", "setting": "[1]", "value": "slightly more temperature sensitive"}, {"measurement": "average injury rating, V4 Growth Stage, 4x Quizalofop", "setting": "F1 hybrid maize plants [2]; [4]", "value": 0.8}, {"measurement": "average injury rating, V8 Growth Stage, 4x Quizalofop", "setting": "F1 hybrid maize plants [2]; [4]", "value": 1.5}, {"measurement": "average injury rating, V4 Growth Stage, 8x Quizalofop", "setting": "F1 hybrid maize plants [2]; [5]", "value": 1.3}, {"measurement": "average injury rating, V8 Growth Stage, 8x Quizalofop", "setting": "F1 hybrid maize plants [2]; [5]", "value": 0.8}, {"measurement": "average injury rating, V4 Growth Stage, 16x Quizalofop", "setting": "F1 hybrid maize plants [2]; [6]", "value": 3.3}, {"measurement": "average injury rating, V8 Growth Stage, 16x Quizalofop", "setting": "F1 hybrid maize plants [2]; [6]", "value": 5.5}, {"measurement": "average injury rating, V8 Growth Stage, 1x Clethodim", "setting": "F1 hybrid maize plants [2]", "value": 93.3}, {"measurement": "% Injury from V4 2,4-D", "setting": "F1 hybrid maize plants [3]; CTP A", "value": 21.6, "unit": "%"}, {"measurement": "% Injury from V8 2,4-D", "setting": "F1 hybrid maize plants [3]; CTP A", "value": 16.6, "unit": "%"}, {"measurement": "% Injury from V4 Quizalofop", "setting": "F1 hybrid maize plants [3]; CTP A", "value": 31.2, "unit": "%"}, {"measurement": "% Injury from V8 Quizalofop", "setting": "F1 hybrid maize plants [3]; CTP A", "value": 5, "unit": "%"}]}
{"molecule": "B2", "values": [{"measurement": "T1/2, temperature at which the enzyme activity was half of maximum", "setting": "[1]", "value": 41, "unit": "°C"}, {"measurement": "temperature sensitivity compared with the wild-type enzyme", "setting": "[1]", "value": "slightly more temperature sensitive"}, {"measurement": "% Injury from V4 2,4-D", "setting": "F1 hybrid maize plants [3]; CTP A", "value": 10, "unit": "%"}, {"measurement": "% Injury from V8 2,4-D", "setting": "F1 hybrid maize plants [3]; CTP A", "value": 10, "unit": "%"}, {"measurement": "% Injury from V4 Quizalofop", "setting": "F1 hybrid maize plants [3]; CTP A", "value": 1.25, "unit": "%"}, {"measurement": "% Injury from V8 Quizalofop", "setting": "F1 hybrid maize plants [3]; CTP A", "value": 1.25, "unit": "%"}, {"measurement": "% Injury from V4 2,4-D", "setting": "F1 hybrid maize plants [3]; CTP B", "value": 12.5, "unit": "%"}, {"measurement": "% Injury from V8 2,4-D", "setting": "F1 hybrid maize plants [3]; CTP B", "value": 11.67, "unit": "%"}, {"measurement": "% Injury from V4 Quizalofop", "setting": "F1 hybrid maize plants [3]; CTP B", "value": 9.17, "unit": "%"}, {"measurement": "% Injury from V8 Quizalofop", "setting": "F1 hybrid maize plants [3]; CTP B", "value": 8.33, "unit": "%"}, {"measurement": "% Injury from V4 2,4-D", "setting": "F1 hybrid maize plants [3]; CTP C", "value": 20, "unit": "%"}, {"measurement": "% Injury from V8 2,4-D", "setting": "F1 hybrid maize plants [3]; CTP C", "value": 21.25, "unit": "%"}, {"measurement": "% Injury from V4 Quizalofop", "setting": "F1 hybrid maize plants [3]; CTP C", "value": 30, "unit": "%"}, {"measurement": "% Injury from V8 Quizalofop", "setting": "F1 hybrid maize plants [3]; CTP C", "value": 32.5, "unit": "%"}, {"measurement": "% Injury from V4 2,4-D", "setting": "F1 hybrid maize plants [3]; CTP None", "value": 0, "unit": "%"}, {"measurement": "% Injury from V8 2,4-D", "setting": "F1 hybrid maize plants [3]; CTP None", "value": 0, "unit": "%"}, {"measurement": "% Injury from V4 Quizalofop", "setting": "F1 hybrid maize plants [3]; CTP None", "value": 85, "unit": "%"}, {"measurement": "% Injury from V8 Quizalofop", "setting": "F1 hybrid maize plants [3]; CTP None", "value": 90, "unit": "%"}]}
{"molecule": "B3", "values": [{"measurement": "T1/2, temperature at which the enzyme activity was half of maximum", "setting": "[1]", "value": 29, "unit": "°C"}, {"measurement": "average injury rating, V8 Growth Stage, 1x Clethodim", "setting": "F1 hybrid maize plants [2]", "value": "94.5 and 93.3"}]}
